Test results published in the supplement of paper PMC9170038.

System: K4 kissing-loop RNA reporter
Assay: apparent KD of K4 kissing-loop reporter; higher = weaker reporter binding
Conditions: Eterna round: R107
Protocol: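 RNA-MaP round R107: designed RNA switches with theophylline, tryptophan, arginine or FMN aptamers are transcribed on-chip within common flanks. They are titrated with a labelled K4 kissing-loop RNA reporter in RNA-MaP buffer (100 mM Tris pH 7.5, 80 mM KCl, 4 mM MgCl2), without ligand or with the indicated ligand. Median apparent KD per design.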

[1] = input ligand: theophylline 20 uM
[2] = input ligand: tryptophan 2.4 mM
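Note: bound reporter read as fluorescence of individual clusters on recovered sequencing chips by microscopy, with normalized cluster intensities fitted with a binding model.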

Sequence | apparent KD of K4 kissing-loop reporter (input ligand: FMN 200 uM) | apparent KD of K4 kissing-loop reporter (input ligand: arginine 13.2 mM) | apparent KD of K4 kissing-loop reporter (input ligand: none) | apparent KD of K4 kissing-loop reporter [1] | apparent KD of K4 kissing-loop reporter [2]
CCAGUGAUAAACGAUACCAGAAAUACCUUAUUUGGCCGGCGGAGUGAUGUUCCUAAUACUUUCCCUUGGCAGCGUCGAAUGCUAG [theeternabot_sameState_KL_Theo_B_16] | 0.0438 µM | 0.0611 µM | 0.046 µM | 0.099 µM | 0.0423 µM
UUAUCAUCAGCGGCCGCCACUGCAAAUUGGAGUGAUGUUCCAAGCGUGGAUAUUGAAAUUACUAGUAGGACCGGGUUGAUGAAUU [AK 2 Ex Trypt B] | 0.158 µM | 0.132 µM | 0.158 µM | 0.105 µM | 0.159 µM
UCGAGUUGACGAAGAGUCAACUCGUGUGAUACCAGUGACGAAAGUCACCCUUGGCAGCACUAUGCUAGUGAUGUUGGUAUUUAAG [#08 K4 Theophylline A Same State] | 0.19 µM | 0.0927 µM | 0.179 µM | 0.105 µM | 0.127 µM
UGGACCUGACUCGAUAAGAGUCAAAGGGAUACCAGCCACGAAAGUGGCCCUUGGCAGCUCUGCCAGUGAUGUUGGUCAAGGUCCU [#SwitchBubble 6 #StaticStem] | 0.925 µM | 0.701 µM | 1.31 µM | 0.59 µM | 0.854 µM
AAGCCAAAGAUUGCUGCGGGUUCCAGAGAUACCAGCCGUAUUGAAGGCCCUUGGCAGCUCGAGUGAUGUUCGAGCCGUCUCUGGC [Lexerati] | 0.127 µM | 0.117 µM | 0.117 µM | 0.122 µM | 0.105 µM
UGGAGGAGUGAUGUUCCCGAAACAUGAGAUACCAGCGUCACAGUCCGCCCUUGGCAGCUCGGUCCAAUUUGCCUCGCGGGUAAUG [theeternabot_sameState_KL_Theo_A_23] | 0.244 µM | 0.251 µM | 0.299 µM | 0.257 µM | 0.182 µM
GCCCGAAAGGGCCGAAGUGUUUGCGGCGAUCGAGGACCGGUACGGCCGCCACUCGUCGAGGCGUUCAGUGAUGUUGAAAGCAUGA | 0.25 µM | 0.257 µM | 0.215 µM | 0.266 µM | 0.48 µM
UACAAACGUAGUGAUGUUACGUACUCUGAUACCAGACAACUCUAAGUCCCUUGGCAGCAGUCAUUUUGCUUAUUAUUUUCUCAAA [JR_ExcTheophyA_Sub018] | 0.0865 µM | 0.102 µM | 0.092 µM | 0.0985 µM | 0.0752 µM
ACGCUUGAAUAACAAGCGAAAUAAAAUUCGCGAGGACCGGUACGGCCGCCACUCGCUAACUGCGAGUGAUGUUCGAUAAUAAAAU [Mat - Mod of OpenEnded 3 - D16] | 0.139 µM | 0.0802 µM | 0.129 µM | 0.208 µM | 0.0691 µM
GGCACUUUUGCUUGGAACCGUCAAGCUCUAUAGGAUAUGCCGAAAGGCAGAAGGAUGGACCUACAGAGUGAUGUUCUGCGUGCCU | 0.393 µM | 0.14 µM | 0.583 µM | 0.134 µM | 0.218 µM
AUGCCUCUGGCUGAUACCAGUGAUGCAGGGUAUGAGACAGGGAGUGAUGUUCCCUGCAGCCACCCUUGGCAGCAGUUUAAGUUUG [Exclusion Theophylline B GF 20] | 0.184 µM | 0.18 µM | 0.185 µM | 0.197 µM | 0.168 µM
ACGUAUAUCAGAGGAUAUCGUAUUAAUAUUUUAUCUAUAUAGUUUUGCAGUGAUGUUGCAAUUAUUCGAGAAGGCUGAUUUACGA [JR_SSFMNB_Sub024] | 0.0861 µM | 0.0956 µM | 0.0753 µM | 0.0892 µM | 0.0692 µM
UGGAGUUGACGAAAAGUCAACUCCUGAGAAGGAGCGGACGAAAGUCCAGGUAGGUCGCUCACUAGCAGUGAUGUUGCUACAUAAA [#OpenEnded 2] | 0.202 µM | 0.211 µM | 0.219 µM | 0.253 µM | 0.208 µM
GUUGAUCAUGGAAGGAGCGCCCAUUGUCGACACGAGUGAUGUUCGUGUCGUUGAUUACGAGGGCAGGUAGGUCGCCGUGUGCUUU [Rabele] | 0.149 µM | 0.109 µM | 0.124 µM | 0.116 µM | 0.119 µM
UUUCCAGAUAAGUGGGAACACUCCAUAACAGAGGAUAUCAGAGCGCUGAGAAGGCUGUUUUACAGUGAUGUUGUAAGUGUGGAGU [FMN A SS t2] | 0.153 µM | 0.249 µM | 0.283 µM | 0.304 µM | 0.253 µM
AGACCACAAAGUGGUCAGUGUUCGCGGCAGCGAGGACCGGUACGGCCGCCACUCGCGAGUGAUGUUCGCGAGAGCCGCGAACACA [Omei KL Tryp A Exc A v8] | 0.0827 µM | 0.0809 µM | 0.0826 µM | 0.0938 µM | 0.0996 µM
AAACAUCACUGGGAGUGAUGUUCUCAGUGACGAGGACCGGUACGGCCGCCACUCGCGAGAGAUAUAGUUAAGUAAUGACUGCAUU [Excl Tryptophan A V7] | 0.324 µM | 0.251 µM | 0.294 µM | 0.333 µM | 0.324 µM
AACCGUGUGGCGGCCGCCACUAGUCUCCAGUGAUGUUGGAGAGACCACGUAAGUGGUCUCCGACAUAGGACCGGGCCAUAUGGAA [Same State - Tryptophan B (Freestyle 25)] | 0.547 µM | 0.339 µM | 0.361 µM | 0.531 µM | 0.692 µM
AUGUAUGAAUUAGGAUAUCGUGAGCCUUGCAUAUAUAUGAUAAAUGGAUAUGUCGUAGUGAUGUUACGAGAAGGAGUGUGGAGUA [KL-XFMN-B4] | 0.045 µM | 0.0616 µM | 0.0455 µM | 0.0712 µM | 0.0391 µM
GUGCAAAGCACCGGCACGAGCAGCCUAAAGGAGGAUAUGACGAAAGUCAGAAGGCCUAGUGAUGUUAGGCCUUGCUUGAGUCGAA [Omei KL FMN A Exc B v1] | 0.131 µM | 0.137 µM | 0.169 µM | 0.183 µM | 0.151 µM
ACUGCCAUUGCGGCCGCCACUAUCUCACUUUGCGAAUCUGCACCGACUGAGUGAUGUUCGGUAAAUAGGACCGGGCAAUGGGCCG [theeternabot_sameState_KL_Trp_B_26] | 0.611 µM | 0.479 µM | 0.633 µM | 0.281 µM | 0.657 µM

Sequence | apparent KD of K4 kissing-loop reporter (input ligand: FMN 200 uM) | apparent KD of K4 kissing-loop reporter (input ligand: arginine 13.2 mM) | apparent KD of K4 kissing-loop reporter (input ligand: none) | apparent KD of K4 kissing-loop reporter [1] | apparent KD of K4 kissing-loop reporter [2]
AGACUACCACACUGUCAAUAGACAGUGAGCUAGGAUAUGCUGAUAAGCAGAAGGAGUGAUGUUCCUUGGUAGUCAAUAAAAUAAU [FmnAX 13 G29+U67] | 0.366 µM | 0.271 µM | 0.285 µM | 0.319 µM | 0.28 µM
AAAUUCUUUUUUUUAUUUAACUUUUCAGAAGGAGCGUGGUAGUACACAGGUAGGUCGCUGAAUUUUGGGCUAGUGAUGUUAGUUA [whbob_SS_Arginine_A_sa113] | 0.221 µM | 0.217 µM | 0.258 µM | 0.311 µM | 0.193 µM
CCGCCAUCGUCAGAUACCAGGCUGAUGGCGGUAACCGCCAAGCGAGUGAUGUUCGCAUCAGUCCCUUGGCAGCUGACGAAGACUG [#16 K4 Theophylline B Same State] | 0.176 µM | 0.0869 µM | 0.19 µM | 0.283 µM | 0.133 µM
ACUAGUUAAUCGGCCGCCACUUCUAGUGAUGUUAGAAUUAUCCAGAUUAUCAGCGUAGCACAUUGAAGGACCGGGAUAAGGUGGU [theeternabot_exclusion_KL_Trp_B_2] | 0.275 µM | 0.236 µM | 0.269 µM | 0.273 µM | 0.261 µM
AUACGUUUAAGUGAUACCAGACAUGUGAGUGAUGUUUACAAAUAAAUUAAAUUUUUAGCUGUCCCUUGGCAGCACAGUUUAUUUA [JR_ExcTheophyB_Sub002] | 0.516 µM | 0.517 µM | 0.594 µM | 0.61 µM | 0.43 µM
UAGUCCUAGUGAUGGUCAUCACGUGGUGGGCGAGGACCGGUACGGCCGCCACUCGACUUUGCAGUGAUGUUGCAAACCGGACAAU [Exclusion - Tryptophan A (Freestyle 19)] | 0.333 µM | 0.322 µM | 0.311 µM | 0.354 µM | 0.298 µM
UGAUACCAGACGGCCGCCACUAGGACCGGGAGUGAUGUUCCCAAUUUAAAAUGCUCGGCCGCCACUAGGACCGGGUCUGGUAUCU [TrypBX 27 #DoubleAptamer #SwitchBubble] | 0.173 µM | 0.207 µM | 0.198 µM | 0.305 µM | 0.109 µM
CGUUUAUAGCAGGAUACCAGUACCCAUUAUGUACGUUUAUAGUAGAGUGAUGUUCUAAAGUACCCUUGGCAGCUUCCUGUGACCC [ExTheophylB.Aa] | 0.167 µM | 0.168 µM | 0.181 µM | 0.194 µM | 0.145 µM
UGACUGGACUGAAGGAGCGAGCGAGACAAAGUCUCGAAAAUUCAGUGAUGUUGAAAUAUAACUCAGGUAGGUCGCAGUCUAGUCU [ArgBS 4 #SwitchBubble #StaticStem] | 0.328 µM | 0.303 µM | 0.377 µM | 0.313 µM | 0.304 µM
UGUCAUUGGUCGGCCGCCACUCCGUAACGAGUGAUGUUCUAAAAGACGGAUCGAAAGAUCUGUCGGAGGACCGGGACCGAUGACU [FiskerMod 7 - Jieux - Same State - Tryptophan B] | 0.725 µM | 0.149 µM | 0.448 µM | 0.199 µM | 0.9 µM
GAGGUACAGCUGGCCGUCGAAUUGUCCGAUACCAGACACUCUCUAGUCCCUUGGCAGCGGUGGUAAGUGAUGUUUACAGGCGCCG [theeternabot_exclusion_KL_Theo_A_3] | 0.152 µM | 0.104 µM | 0.147 µM | 0.122 µM | 0.126 µM
CCAAACAGUUACGAUACCAGUCUAAUAUAUUUGAUCAAAACCCUCGCCGAGUGAUGUUCGGACCCUUGGCAGCGUCUGGGACAGG [zzbtmullin] | 0.479 µM | 0.378 µM | 0.5 µM | 0.414 µM | 0.371 µM
UGAGGAGAUUAUGAUACCAGCAGAGAGAGAGAGGAAGUAUAGUGAUGUUAUAUGAGAUAAUGCCCUUGGCAGCAUAAGAAGAAGG [#20 K4 Theophylline B Same State] | 0.182 µM | 0.133 µM | 0.148 µM | 0.147 µM | 0.14 µM
AGAUUCGACACGGCCGCCACUCGUGGUGGAUUACCGAGUGUCGAAGUUGAGUGAUGUUCAAGUACGAGGACCGGGUGUUGAGUCU [KL-XTryp-B9 #analogue] | 0.193 µM | 0.204 µM | 0.198 µM | 0.163 µM | 0.435 µM
CGAGUGAUGUUCGAAGAGUUGUUAAGCGAUACCAGCUAGGAAACUGGCCCUUGGCAGCGUAAUAAGUAAAUAAAUAAAUGAUCAC [whbob_Ex_Theo_A_th63] | 0.287 µM | 0.399 µM | 0.442 µM | 0.486 µM | 0.337 µM
CGCAGUGAUGUUGCGAGUAGCUACAGGGAAGGAGCGCUCUAGUGAGCAGGUAGGUCGCCCACGCAGUGAUGUUGCGUCAUAGGGU [Exclusion Arg A GF9] | 0.116 µM | 0.11 µM | 0.113 µM | 0.113 µM | 0.101 µM
AGCGAGAUACUUGUCUAGUAUACUACAGAUACCAGACAAGUACUAGUCCCUUGGCAGCUGUAGAUCGAGUGAUGUUCGAGUCGCU [Theo A SS t1] | 0.527 µM | 0.415 µM | 0.516 µM | 0.43 µM | 0.389 µM
CCUGUGUGUGAAGGAUAUAUUUCGCAUUAAAACUAGUGAUGUUGGUAAAUGGCACAAUCCGUAGCAAUAGAAGGUCACUCCGGAA [theeternabot_sameState_KL_FMN_B_22] | 0.499 µM | 0.445 µM | 0.793 µM | 0.498 µM | 0.524 µM
CGGAGUGAUGUUCCGUUAAUUCCUUAGUUACGAGGACCGGUACGGCCGCCACUCGAUUUUAGUUUUAUUUAUUGUUUGGAAAUUU [JR_SSTryptoA_Sub008] | 0.253 µM | 0.268 µM | 0.29 µM | 0.327 µM | 0.113 µM
GACUGGUUAACAGAUACCAGCCACAAGCGUUGAGGCGGCGGUAAAGUGAUGUUUUAUAAAGGCCCUUGGCAGCUGACUAGUUCGU [theeternabot_exclusion_KL_Theo_B_28] | 0.371 µM | 0.387 µM | 0.383 µM | 0.381 µM | 0.324 µM
CCUUCUCUUGAUAGUGAUGUUAUCAAGGGCAAGGAUAUCAUCUUAAUGAGAAGGUGUCCUUGAUAACAUGGAGGUCUGAAACAGA [Omei KL FMN A Exc C v5] | 0.108 µM | 0.186 µM | 0.229 µM | 0.321 µM | 0.335 µM
